{"source": "patent US7812117B2", "about": "“Vasostatin as marrow protectant” (The United States of America as represented by the …, priority 1998, dated 2010)", "molecules": {"B1": {"name": "vaso: N-terminal domain of calreticulin (amino acids 1-180, SEQ ID NO:3); given as fusion protein with maltose binding protein, MBP-vaso (protein)", "chain": "EPAVYFKEQFLDGDGWTSRWIESKHKSDFGKFVLSSGKFYGDEEKDKGLQTSQDARFYALSASFEPFSNKGQTLVVQFTVKHEQNIDCGGGYVKLFPNSLDQTDMHGDSEYNIMFGPDICGPGTKKVHVIFNYKGKNVLINKDIRCKDDEFTHLYTLIVRPDNTYEVKIDNSQVESGSLE", "modifications": "Vasostatin"}}, "key": {"murine bone marrow cells": {"system": "murine bone marrow cells", "assay": "Murine bone marrow cell number in culture (Owen's reagent formazan absorbance at 490 nm)", "format": "cell-based, mouse", "method": "FIG. 7 is a series of bar graphs showing the effects of vaso on growth-factor induced proliferation of bone marrow cells with or without methotrexate. Bone marrow cells populations, obtained from the femural cavities of C57BL/6NCR mice (3.5 months of age), were cultured in 24 well tissue culture plates in culture medium alone or medium containing a mixture of the growth factors (GF) IL-3 (20 ng/ml), IL-6 (100 ng/ml) and Stem Cell Factor (100 ng/ml). Vaso was added to the cultures at concentrations ranging between 1.25 and 10 μg/ml. Methotrexate was added to the cultures at the concentration of 100 nM. FIG. 7A is a bar graph of cell proliferation as measured by ^3H thymidine incorporation during the final 22 hr of a 7-day culture. The results reflect the mean cpm of triplicate cultures. FIG. 7B is a bar graph of cell numbers measured as mean absorbance (490 nM) after conversion of Owen's reagent into colored formazan product (One Solution Reagent, Promega).\nFIG. 9 is a series of bar graphs showing that vaso increases bone marrow cell proliferation in vitro. Bone marrow cells populations, obtained from the femural cavities of C57BL/6NCR mice (8 weeks of age), were cultured in culture medium alone or in medium supplemented with a mixture of IL-3 (20 ng/ml), IL-6 (100 ng/ml) and Stem Cell Factor (SF, 100 ng/ml). […] FIG. 9A is a bar graph of cell proliferation as measured by ^3H thymidine incorporation during the final 20-23 hr of a 4, 5 or 6-day culture. FIG. 9B is a bar graph of cell number measured as absorbance (490 nM) after conversion of Owen's reagent into colored formazan product (One Solution Reagent, Promega).\nIn the absence of exogenously added growth factors, vaso at the highest concentration used (10 μg/ml) had low level stimulatory effect (approximately 2-fold stimulation of background cpm).\nStimulation of bone marrow cell proliferation by vaso was associated with an increased number of bone marrow cells, measured as absorbance from the conversion of Owen's reagent into a colored formazan product (One Solution Reagent, Promega, Madison. Wis.). […]"}, "human CD34+ cells": {"system": "human CD34+ cells", "assay": "Proliferation of purified human peripheral blood CD34+ cells", "format": "cell-based", "method": "FIG. 12 is a bar graph of the proliferative responses of human CD34-positive cells to vaso. Human CD34-positive cells purified (>90% purity) from the peripheral blood of a normal individual after G-CSF mobilization following standard procedures were cultured (1×10^6 cells/ml) in 24 well tissue culture plates in RPMI 1640 medium supplemented with 15% FBS. […] Vaso was added at 10 μg/ml. Cell proliferation was measured during the final 22 hr of a 5, 6 or 9 day culture by ^3H thymidine incorporation. Data is shown as the mean of triplicate cultures.\nTo this end, CD34+ cells were purified to a high degree of homogeneity (>90% purity) from the peripheral blood of normal donors, according to established protocols (Mavroudis et al. Bone Marrow Transplant 21:431-40, 1998).\nThe purified human CD34+ cells along with the negatively selected CD34− mononuclear cell population were cultured in RPMI 1640 medium containing 15% FBS. Human Stem Cell Factor (300 ng/ml) and Flt-3 ligand (300 ng/ml) were added to the culture medium. […] Thus, purified hematopoietic cells from both mouse and man proliferate in response to vaso.\nVaso, calreticulin fragment 103-163, calreticulin fragment 120-146, and calreticulin fragment 128-146 (all used at 10 μg/ml) were tested in side-by-side assays for their ability to stimulate murine bone marrow hematopoietic cells in the presence of IL-3 (20 ng/ml). […]"}}, "data": [{"molecule": "B1", "values": [{"measurement": "number of cells in culture", "setting": "murine bone marrow cells; vaso 10 μg/ml added to medium alone", "value": "increased only minimally"}, {"measurement": "number of cells counted after 5 days of culture", "setting": "murine bone marrow cells; vaso 10 μg/ml, growth factors (IL-3, IL-6 and Stem Cell Factor) either alone or with etoposide 77 nM", "value": "increased significantly"}, {"measurement": "number of living bone marrow cells in culture", "setting": "murine bone marrow cells; vaso with methotrexate 100 nM and growth factors", "value": "increase in the number of living bone marrow cells"}, {"measurement": "cell growth of purified human CD34+ peripheral blood cells", "setting": "human CD34+ cells; IL-3 alone or IL-3 together with IL-6 and Stem Cell Factor", "value": "similarly stimulated cell growth"}, {"measurement": "proliferation of CD34+ cells", "setting": "human CD34+ cells; vaso 10 μg/ml, Stem Cell Factor 300 ng/ml and Flt-3 ligand 300 ng/ml", "value": "responded with increased proliferation"}]}]}
